Measurements reported in patent US20120269815A1, “NEUROTROPHINS AND USES THEREOF” (Regents of the University of Minnesota, priority 2008, published 2012).

Tests used:
[1] = system: TUF1 expression in adrenal glomerulosa cell dispersion; assay: Angiotensin II stimulation of adrenal glomerulosa cell dispersion (qPCR); format: cell-based, rat; conditions: overnight incubation, 5-500 ng/mL
Method: Adrenal glands were dissected from adult Sprague-Dawley rats (280 g-300 g) and kept in cold PBS. Following fat removal, adrenal capsules were detached and placed into a few drops of dispersion media (DMEM, 1.0 g/L glucose, 0.32% collagenase (type I, GIBCO, Life Technologies Corp., Carlsbad, Calif.), 4% BSA (Sigma-Aldrich Co., St. Louis, Mo.), 0.1% DNAse (Sigma-Aldrich Co., St. Louis, Mo.). Adrenal capsules were then minced with surgical scissors, transferred to dispersion media and incubated for 90 minutes in a 37° C. and 10% CO2 cell culture incubator with trituration at 15 minute intervals. Dispersed cells were filtered through a 100 μm wire mesh into wash media (DMEM, 0.4% BSA, 0.28% HEPES) and centrifuged at 200×g for 5 minutes. Following supernatant removal, cells were rinsed in wash media and resuspended in incubation media (wash media+7.65 mM CaCl2). Dissociated cells were seeded at 75,000 cells/well in a 24-well plate and incubated at 37° C. and 10% CO2 prior to stimulation. […]
Following overnight incubation, total RNA was isolated from capsular/glomerulosa cells using an RNA-isolation kit (Zymo Research Corp., Orange, Calif.) and concentrations were measured by absorbance at 260 nm ([…]) using a NanoDrop ND-1000 (NanoDrop Technologies, Inc., Wilmington, Del.). […]

[2] = biological target: T1, p75^NTR (Homo sapiens, UniProt P08138); assay: Fluorescence-labeled TUF1 peptide binding to COS7 cells expressing p75NTR; conditions: labeled peptide 5 nM, 90 min, COS7 cells transfected with pCMV-SPORT6-p75
T1 construct: host or cells: COS7
T1 sequence (P08138 29-427): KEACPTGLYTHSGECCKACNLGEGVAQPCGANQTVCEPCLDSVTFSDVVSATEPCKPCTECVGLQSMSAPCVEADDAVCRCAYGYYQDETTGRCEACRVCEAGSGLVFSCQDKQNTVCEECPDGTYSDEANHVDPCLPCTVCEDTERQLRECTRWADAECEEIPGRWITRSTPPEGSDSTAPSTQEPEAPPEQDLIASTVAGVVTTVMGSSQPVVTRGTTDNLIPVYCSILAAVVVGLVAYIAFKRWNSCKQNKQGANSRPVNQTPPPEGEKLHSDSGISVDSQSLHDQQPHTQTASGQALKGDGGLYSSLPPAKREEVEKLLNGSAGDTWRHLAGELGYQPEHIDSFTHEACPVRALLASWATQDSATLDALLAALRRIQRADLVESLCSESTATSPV
Method: COS7 cells were seeded at 10,000 cells/well onto a 18 mm coverslip in a 12-well plate. Cells were allowed to settle overnight in a cell culture incubator (NuAire NU-8600, NuAire, Inc., Plymouth, Minn.) set at 37° C. and 5% CO2. Cells were transfected with pCMV-eGFP (Clontech Laboratories, Inc., Mountain View, Calif.) or pCMV-SPORT6-p75 (ATCC) using Fugene HD (Roche Diagnostics Corp., Indianapolis, Ind.) and were incubated overnight. The binding assays were carried out according to Horton et al. with modifications. Synthetic TUF1 peptides (TUF1[43-54] (SEQ ID NO:1) and TUF1[24-40] (SEQ ID NO:3) were generated (via Sigma Genosys, Sigma-Aldrich Co. St. Louis, Mo.) and were conjugated per manufacturer's recommendation with DyLight 549 NHS Ester (Thermo Fisher Scientific, Waltham, Mass.), which have similar spectra to Cy3 dye. Unconjugated dye was removed with a dye removal column (Thermo Fisher Scientific, Waltham, Mass.). Labeled peptides were diluted to 5 nM in 0.15 M Sucrose/PBS and added (1.0 ml/well) to transfected COS7 cells. The binding reaction was incubated in the dark at room temperature for 90 minutes. Cells were rinsed thoroughly with PBS+0.05% Tween-20 to remove unbound peptide. Cells were then fixed with 4% Paraformaldehyde (5 minutes).
Following fixation, cells were permeabilized in PBS+0.1% Tween-20 for 10 minutes, rinsed thoroughly with PBS, and blocked in BSA (10 mg/ml) for 10 minutes. Cells were incubated with rabbit anti-p75^NTR antibody (1:10,000 dilution) for 30 minutes. Excess antibody was removed with PBS washes. Cells were then incubated with Alexa-488 goat anti-rabbit antibody (1:500 dilution, Invitrogen). Cells were again rinsed thoroughly with PBS and mounted in Vectashield mounting media plus DAPI (Vector Laboratories, Inc., Burlingame, Calif.).
COS7 cells were seeded at 10,000 cells/well onto an 18 mm coverslip in a 12-well plate. Cells were allowed to settle overnight in a cell culture incubator (NuAire NU-8600, NuAire, Inc., Plymouth, Minn.) set at 37° C. and 5% CO2. Cells were transfected with pCMV-eGFP (Clontech Laboratories, Inc., Burlingame, Calif.) or pCMV-SPORT6-p75 (ATCC) using Fugene HD (Roche Diagnostics Corp., Indianapolis, Ind.) and were incubated overnight. The binding assays were carried out according to Horton et al. with modifications. Synthetic TUF1 peptides (TUF1[43-54] (SEQ ID NO:1) and TUF1[24-40] (SEQ ID NO:3)) were generated (via Sigma Genosys, Sigma-Aldrich, St. Louis, Mo.) and were conjugated per manufacturer's recommendation with DyLight 549 NHS Ester (Thermo Fisher Scientific Inc., Waltham, Mass.), which have similar spectra to Cy3 dye. Unconjugated dye was removed with a dye removal column (Thermo Fisher Scientific Inc., Waltham, Mass.). Labeled peptides were diluted to 5 nM in 0.15M Sucrose/PBS and added (1.0 ml/well) to transfected COS7 cells. The binding reaction was incubated in the dark at room temperature for 90 min. Cells were rinsed thoroughly with PBS+0.05% Tween-20 to remove unbound peptide. Cells were then fixed with 4% Paraformaldehyde (5 minutes).
Following fixation, cells were permeabilized in PBS+0.1% Tween-20 for 10 minutes, rinsed thoroughly with PBS, and blocked in BSA (10 mg/ml) for 10 minutes. Cells were incubated with rabbit anti-p75^NTR antibody (1:10,000 dilution) for 30 minutes. Excess antibody was removed with PBS washes. Cells were then incubated with Alexa-488-goat anti-rabbit antibody (1:500 dilution, Invitrogen Corp., Carlsbad, Calif.). […]

| Substance | TUF1 expression [1] | binding to p75^NTR [2] | binding to p75^NTR ([2]; listed as TUF1^24-40) |
| --- | --- | --- | --- |
| Angiotensin II (DRVYIHPF; Angiotensin-2; UniProt P01019 25-32, looked up) [angiotensin II (Sigma-Aldrich) used to stimulate adrenal glomerulosa cells] | activates TUF1 expression |  |  |
| TUF1[24-40]: synthetic TUF1 peptide, SEQ ID NO:3, without similarity to neurotrophic factors (NGF and BDNF) (GTIKLTPRLSKDAYSEM; Artifical sequence; TUF1 polypeptide) |  | did not bind cells expressing p75^NTR | did not bind the p75^NTR |
